Columns and labels:
[1] = biological target: Rs-AFP1 (Raphanus sativus antifungal protein 1) (Raphanus sativus)
[2] = biological target: Rs-AFP2 (Raphanus sativus antifungal protein 2) (Raphanus sativus)

Substance | antifungal activity on Fusarium culmorum after digestion with the protease [1] | antifungal activity on Fusarium culmorum after digestion with the protease [2]
chymotrypsin (enzyme) | 10 fold | 10 fold
pronase E (enzyme) | 10 fold | 10 fold
proteinase K (from UniProt P06873) (enzyme) | 10 fold | 10 fold
trypsin (enzyme) | 10 fold | 10 fold
